Biological target: T1, VapC21 toxin (Rv2757c) of the VapBC21 complex co-expressed from pET-Duet (M. tuberculosis, UniProt P9WF91 1-138)
T1 construct: also called VapC21 (in VapBC21 complex); not shown: His6, N-terminal, kept
T1 sequence: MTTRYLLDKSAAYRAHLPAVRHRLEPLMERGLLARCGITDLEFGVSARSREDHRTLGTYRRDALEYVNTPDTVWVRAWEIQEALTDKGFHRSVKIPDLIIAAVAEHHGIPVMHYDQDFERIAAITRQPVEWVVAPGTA
Experiment: SEC-MALS
Conditions: both partners purified

B1: VapB21 antitoxin (Rv2758c) of the VapBC21 complex co-expressed from pET-Duet (natural protein)
chain: MHRGYALVVCSPGVTRTMIDIDDDLLARAAKELGTTTKKDTVHAALRAALRASAARSLMNRMAENATGTQDEALVNAMWRDGHPENTA
notes: also called VapB21 (in VapBC21 complex)
  stoichiometry N: 1 antitoxin per toxin (4:4)

Reference: article PMC7517352 (Frontiers in Microbiology, 2020)
